Our source for the Kd values is publication doi:10.1101/2020.03.30.016881 (bioRxiv, 2020).

No end group written: not given here. TMR = tetramethylrhodamine (5,6-carboxy TMR) linked to N-terminus

The target of the assay is E. coli DnaK (Hsp70), unlabelled (E. coli, UniProt P0A6Y8 1-638). Kind of assay: fluorescence polarisation. (In general: In fluorescence polarisation assays a small probe gives low polarisation when free and higher when bound to something large.)
Chain of E. coli DnaK (Hsp70), unlabelled (P0A6Y8 whole entry): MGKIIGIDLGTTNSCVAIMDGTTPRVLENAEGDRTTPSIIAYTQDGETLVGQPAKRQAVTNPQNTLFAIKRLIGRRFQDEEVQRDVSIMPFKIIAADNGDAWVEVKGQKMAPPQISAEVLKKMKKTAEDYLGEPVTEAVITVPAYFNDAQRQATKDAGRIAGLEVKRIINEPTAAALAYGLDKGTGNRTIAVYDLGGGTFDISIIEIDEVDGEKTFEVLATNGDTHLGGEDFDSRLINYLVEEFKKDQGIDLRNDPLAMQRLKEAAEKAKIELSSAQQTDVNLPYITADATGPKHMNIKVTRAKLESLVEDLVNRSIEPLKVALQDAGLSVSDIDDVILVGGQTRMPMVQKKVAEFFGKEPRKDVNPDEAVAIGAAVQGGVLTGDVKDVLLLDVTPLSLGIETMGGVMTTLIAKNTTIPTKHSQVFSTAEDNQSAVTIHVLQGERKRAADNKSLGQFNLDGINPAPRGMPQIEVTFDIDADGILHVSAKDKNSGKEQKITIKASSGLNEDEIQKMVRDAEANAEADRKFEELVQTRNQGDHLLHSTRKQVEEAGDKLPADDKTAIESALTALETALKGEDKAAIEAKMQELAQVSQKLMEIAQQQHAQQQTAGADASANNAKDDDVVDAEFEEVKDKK

For orientation: Kd means the free concentration of one partner at which half of the binding sites on the other are occupied at equilibrium, for simple one-to-one binding. In turn, {TMR}-KCNTATCATQRLANFLVHSSNNFGAILSSTNVGSNTY (ends and bridges not checked) [TMR-IAPP (human IAPP labelled with tetramethylrhodamine at the N-terminus)] registered an equilibrium dissociation constant (Kd) of 2.1 ± 0.9 µM.
